From patent US20210253716A1 (Regeneron, published 2021)
Where a chain is given by its changes, count along the chain named.

T1: mouse ACVR1 extracellular domain expressed with a C-terminal myc-myc-hexahistidine tag (mouse)
T1 construct: also called mACVR1-MMH; mACVR1-mmh
T1 chain: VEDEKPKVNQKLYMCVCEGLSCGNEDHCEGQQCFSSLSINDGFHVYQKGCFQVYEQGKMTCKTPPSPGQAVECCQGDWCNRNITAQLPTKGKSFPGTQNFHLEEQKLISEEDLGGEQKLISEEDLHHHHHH

T2: human ACVR1 extracellular domain expressed with a C-terminal myc-myc-hexahistidine tag (human)
T2 construct: also called hACVR1-MMH
T2 chain: T1 chain with V1M, Q10P

T3: human ACVR1 extracellular domain expressed with a C-terminal mouse IgG2a Fc tag (human)
T3 construct: also called hACVR1-mFc
T3 chain: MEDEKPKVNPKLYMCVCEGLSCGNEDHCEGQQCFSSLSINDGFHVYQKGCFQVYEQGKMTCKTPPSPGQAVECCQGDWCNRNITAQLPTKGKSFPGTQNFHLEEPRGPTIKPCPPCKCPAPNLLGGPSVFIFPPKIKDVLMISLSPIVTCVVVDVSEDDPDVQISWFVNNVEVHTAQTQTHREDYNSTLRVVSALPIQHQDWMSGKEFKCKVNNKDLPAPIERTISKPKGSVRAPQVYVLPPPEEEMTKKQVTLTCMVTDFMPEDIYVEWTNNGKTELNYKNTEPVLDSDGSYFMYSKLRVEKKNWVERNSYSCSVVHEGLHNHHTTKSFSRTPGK

T4: full length human ACVR1 (R206H) on HEK293/BRE-luc/hACVR1-R206H-clone H2 cells (human, UniProt Q04771 21-509)
T4 sequence: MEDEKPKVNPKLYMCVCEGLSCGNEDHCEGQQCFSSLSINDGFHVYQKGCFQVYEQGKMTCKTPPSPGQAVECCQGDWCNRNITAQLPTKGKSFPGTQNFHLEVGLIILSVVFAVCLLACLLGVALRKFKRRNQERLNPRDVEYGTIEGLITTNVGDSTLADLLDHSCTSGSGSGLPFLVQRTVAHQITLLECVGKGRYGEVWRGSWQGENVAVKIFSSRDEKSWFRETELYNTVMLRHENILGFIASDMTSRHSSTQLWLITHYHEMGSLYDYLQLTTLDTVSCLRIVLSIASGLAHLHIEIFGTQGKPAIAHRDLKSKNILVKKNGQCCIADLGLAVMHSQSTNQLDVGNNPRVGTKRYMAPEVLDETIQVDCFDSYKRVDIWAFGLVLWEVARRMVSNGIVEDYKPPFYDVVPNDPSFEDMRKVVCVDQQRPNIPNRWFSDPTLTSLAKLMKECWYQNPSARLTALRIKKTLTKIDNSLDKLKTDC

T5: full length wild type human ACVR1 on HEK293/BRE-luc/hACVR1-wild type cells (human, UniProt Q04771 21-509)
T5 construct: also called HEK293/hACVR1-wt; hACVR1-wt
T5 sequence: T4 sequence with H186R

B1: mAb27242 (antibody, human IgG4 S228P, kappa, V domains shown)
VH: QVQLQQWGAGLLKPSETLSLTCAVYNGSFSSFYWSWIRQPPGKGLEWLGEINHRGRTNNNPSLASRVTISVDTSKSQFSLRLTSVTAADTATYYCTAHTRGFLYWGQGTRVTVSS
VL: DIQMTQSPSSLSASVGDRVTITCQASQDINNYLNWYQQKPGQAPNLLIYDVFNLLPGVPSRFSGSGSGTDFSFTISSLQPEDIATYYCQHYDDLPLTFGGGTTVAIRR
B2: mAb22115 (antibody, human IgG4 S228P, kappa, V domains shown)
VH: EVQLVESGGGLVQPGGSLRLSCAASGFTSSRYWMSWVRQAPGKGLEWLANINQDGSEKYYLESLRGRFTISRDNAKNSLYLQMNNLRAEDTAVYYCARDEEGYWGQGTLVTVSS
VL: DVVMTQSLLSLSVTLGQPASISCRSSQSLVYSDGDTYLSWFQQRPGQSPRRLIYKVSHRDSGVPDRFRGSGSGTDFTLKISRVEAEDVGIYYCMQGTHWPPTFGQGTKVEIKR
B3: mAb22125 (antibody, human IgG4 S228P, kappa, V domains shown)
VH: QVQLVQSGAEVKKPGASVKVSCKASGYTFTGYYMHWVRQAPGQGLEWMGWINPNSVGTNFAQKFQGRVTMTRDTSISTAYMELSRLRSDDTAVYYCTRDGAAAGLFDYWGQGTLVTVSS
VL: DIQMTQSPSSLSASVGDRVTITCRASQGINNYLAWYQQKPGKVPKLLIYAASTLQSGVPSRFSGSGSGTDFTLTISSLQPEDVATYYCQKFNSAPLTFGGGTKVEIKR

Legend:
[1] = biological target: T1, mouse ACVR1 extracellular domain …; assay: SPR (Biacore), mAb captured, 25 C; 25 C
Description: (§1) Equilibrium dissociation constants (KD) for ACVR1 binding to purified anti-ACVR1 monoclonal antibodies were determined using a real-time surface plasmon resonance biosensor (SPR-Biacore), Biacore 4000. All binding studies were performed in 10 mM HEPES, 150 mM NaCl, 3 mM EDTA, and 0.05% v/v surfactant Tween-20, pH 7.4 (HBS-ET) running buffer at 25° C. and 37° C. The Biacore CM5 sensor surface was first derivatized by amine coupling with a monoclonal mouse anti-human Fc antibody (GE, #BR-1008-39 or REGN2567) to capture anti-ACVR1 monoclonal antibodies. […] ACVR1 reagents were then injected over anti-human Fc captured anti-ACVR1 monoclonal antibody surface for 2.5-3 minutes at a flow rate of 30 μL/minute, while the dissociation of monoclonal antibody bound ACVR1 reagent was monitored for 10-15 minutes in HBS-ET running buffer. Kinetic association rate constant (kₐ) and dissociation rate constant (kd) were determined by fitting the real-time sensorgrams to a 1:1 binding model using Scrubber 2.0c curve-fitting software. Binding dissociation equilibrium constants (KD) and dissociative half-lives (t½) were calculated from the kinetic rate constants as: […]

[2] = biological target: T2, human ACVR1 extracellular domain …; assay: SPR (Biacore), mAb captured, 25 C
Description: as §1

[3] = biological target: T3, human ACVR1 extracellular domain …; assay: SPR (Biacore), mAb captured, 25 C
Description: as §1

[4] = biological target: T2, human ACVR1 extracellular domain …; assay: SPR (Biacore), mAb captured, 37 C
Description: as §1

[5] = biological target: T3, human ACVR1 extracellular domain …; assay: SPR (Biacore), mAb captured, 37 C
Description: as §1

[6] = biological target: T4, full length human ACVR1 (R206H) on …; assay: cell-based or functional assay
[7] = biological target: T4, full length human ACVR1 (R206H) on …; assay: flow cytometry, 70 nM antibody, HEK293/hACVR1-R206H cells
Description: (§2) Cells were fixed using BD CytoFix™ (Becton Dickinson, #554655) and analyzed on either Hypercyt® or IQue® Flow Cytometers (Intellicyt®). Unstained and secondary antibody alone controls were also tested for all cell lines. The results were analyzed using ForeCyt® (IntelliCyt®) software to determine the geometric means of fluorescence for viable cells and binding ratios were calculated by normalizing the geometric mean value of the test condition by the geometric mean value of the corresponding unstained cells.

[8] = biological target: T5, full length wild type human ACVR1 on …; assay: flow cytometry, 66.6 nM antibody, HEK293/hACVR1-wt cells
Description: as §2

[9] = biological target: T1, mouse ACVR1 extracellular domain …; assay: SPR (Biacore), mAb captured, 25 C
Description: as §1

[10] = biological target: T1, mouse ACVR1 extracellular domain …; assay: SPR (Biacore), mAb captured, 37 C
Description: as §1

[11] = biological target: T4, full length human ACVR1 (R206H) on …; assay: flow cytometry, 66.6 nM antibody, HEK293/hACVR1-R206H cells
Description: as §2

Binder	900 nM or 100 nM Ag Bound (RU) [2]	Kd [2]	koff [2]	kon [2]	t½ [2]	100 nM Ag Bound (RU) [3]	Kd [3]	koff [3]	kon [3]	t½ [3]	900 nM or 100 nM Ag Bound (RU) [4]	Kd [4]	koff [4]	kon [4]	t½ [4]	100 nM Ag Bound (RU) [5]	Kd [5]	koff [5]	kon [5]	t½ [5]	also measured
B1	63 RU	1.56 nM	0.000135 s⁻¹	86800 M⁻¹ s⁻¹	86 min	199 RU	0.202 nM	2.9e-05 s⁻¹	144000 M⁻¹ s⁻¹	398 min	82 RU	5.77 nM	0.00083 s⁻¹	144000 M⁻¹ s⁻¹	14 min	250 RU	0.669 nM	0.000189 s⁻¹	282000 M⁻¹ s⁻¹	61 min	Kd [1]: 602 nM; koff [1]: 0.144 s⁻¹; kon [1]: 238000 M⁻¹ s⁻¹; t½ [1]: 0.08 min; % Inhibition, BRE-luc reporter, 2 nM hBMP7 [6]: 109%; IC50 [M], BRE-luc reporter, 2 nM hBMP7 [6]: 1.2e-09 M; MFI - Normalized to Unstained Control [7]: 1730 fold
B2	93 RU	145 nM	0.00485 s⁻¹	33400 M⁻¹ s⁻¹	2.4 min	264 RU	11.4 nM	0.000765 s⁻¹	66900 M⁻¹ s⁻¹	15 min	86 RU	438 nM	0.0308 s⁻¹	70400 M⁻¹ s⁻¹	0.37 min	317 RU	30.1 nM	0.0025 s⁻¹	83300 M⁻¹ s⁻¹	4.6 min	MFI - Normalized to Unstained Control [8]: 4 fold; 900 nM or 100 nM Ag Bound (RU) [9]: 94 RU; Kd [9]: 171 nM; koff [9]: 0.00478 s⁻¹; kon [9]: 28000 M⁻¹ s⁻¹; t½ [9]: 2.4 min; 900 nM or 100 nM Ag Bound (RU) [10]: 85 RU; Kd [10]: 504 nM; koff [10]: 0.0297 s⁻¹; kon [10]: 58900 M⁻¹ s⁻¹; t½ [10]: 0.39 min; MFI - Normalized to Unstained Control [11]: 4 fold
B3	44 RU	1020 nM	0.42 s⁻¹	413000 M⁻¹ s⁻¹	0.03 min	268 RU	12.3 nM	0.00802 s⁻¹	652000 M⁻¹ s⁻¹	1.4 min	25 RU					243 RU	79.2 nM	0.0577 s⁻¹	729000 M⁻¹ s⁻¹	0.2 min	MFI - Normalized to Unstained Control [8]: 183 fold; 900 nM or 100 nM Ag Bound (RU) [9]: 41 RU; Kd [9]: 836 nM; koff [9]: 0.575 s⁻¹; kon [9]: 688000 M⁻¹ s⁻¹; t½ [9]: 0.02 min; 900 nM or 100 nM Ag Bound (RU) [10]: 23 RU; IC50 [M], BRE-luc reporter, 3 nM hActivin A [6]: 1.9e-08 M; IC50 [M], BRE-luc reporter, 3 nM hBMP7 [6]: 1.6e-08 M; MFI - Normalized to Unstained Control [11]: 235 fold
